Assay [1] addresses T1, IL-17RA/RC (Mus musculus, UniProt Q60943+Q8K4C2).
T1 construct: expressed in transfected cells
As to the kind of experiment: IL-17RA/RC reporter assay (GFP reporter cells). It is filed as cell-based. The settings on record: reporter cells incubated with different amounts for 24 hours. In general terms: In a reporter assay the amount or activity of a reporter protein is the signal.

The target in assay [2] is T2, IL-17RA/RC (Mus musculus, UniProt Q60943+Q8K4C2, F156E).
T2 construct: expressed in transfected cells
The assay can be described thus: IL-17RA/RC reporter assay (GFP reporter cells). The settings on record: 24 h stimulation, IL-17A-F 100 ng/ml; for increase of percentage of GFP+ cells / GFP expression (reporter response): TNFa 5 ng/ml. It is filed as cell-based.

Assay [3] deals with IL-17RA/RC reporter (IL-17RA-tTA and IL-17RC-TEV co-expressed in reporter cells) (Mus musculus). The assay can be described thus: cell-based or functional assay.
For the next assay, the target named is T3, IL-10R (Mus musculus, UniProt Q61190+Q61727, C4S).
T3 construct: expressed in transfected cells
The assay can be described thus: IL-10 reporter. Type of assay: cell-based. The settings on record: incubated for 24 hours with different amounts. Here is the method:
(§1) IL-10/IFN-γ/TNF-α reporters were incubated for 24 hours with different amounts of IL-10 (FIGS. 5A and 5B), IFN-γ (FIGS. 5C and 5D) or TNF-α (FIGS. 5E and 5F).
(§2) Furthermore, the systems and methods provided herein are applied to generate other cytokine/cytokine receptor reporter system (tTA fused onto one receptor subunit via a protease cleavage site, TEV fused to another receptor subunit, optimal linkers inserted between different proteins to ensure high signal-to-background ratio). The screening platform provided herein are used to identify immune modulatory agents including, but not limited to, small molecules and proteins that modulate cytokine signaling (FIGS. 5A-6F).

Assay [4] deals with IL-17RA/RB reporter (IL-17RA-tTA and IL-17RB-TEV co-expressed in reporter cells) (Mus musculus). As to the kind of experiment: cell-based or functional assay.
The target in the next assay is T4, IL-17RA/RB (Mus musculus, UniProt Q60943+Q9JIP3).
T4 construct: expressed in transfected cells
The assay can be described thus: IL-17RA/RB reporter assay (GFP reporter cells). Type of assay: cell-based. The settings on record: 24 h stimulation, IL-17A-F 100 ng/ml; for increase of percentage of GFP+ cells / GFP expression (reporter response): TNFa 5 ng/ml. Here is the method: Doxycycline was used as a negative regulator of the GFP reporter. IL-17A-F: 100 ng/ml, TNFa: 5 ng/ml, doxycycline: 1 μg/ml.
Using a similar approach, the inventors have recently also successfully generated the IL-17RA/IL-17RB reporter line (FIG. 4). […] Since IL-17E plays a role in allergy and asthma, small molecules modulators that will be identified using this platform may create a new IP opportunity.

A further assay deals with T5, TNFαR1 (Homo sapiens, UniProt P19438).
T5 construct: expressed in transfected cells
As to the kind of experiment: TNF-α reporter. Type of assay: cell-based. The settings on record: incubated for 24 hours with different amounts. Here is the method: as §1, §2

The target of a further assay is T6, IFNγR (Mus musculus, UniProt P15261+Q63953).
T6 construct: expressed in transfected cells
The assay can be described thus: IFN-γ reporter. Type of assay: cell-based. The settings on record: incubated for 24 hours with different amounts. Here is the method:
as §1, §2

With “IL-17A: IL-17 family cytokine; ligand of the IL-17RA/IL-17RC heterodimer”, the “dose-dependent activation of the GFP reporter” value (shortened to “dose-dependent activation”) in the assay with IL-17RA/RC [1] is on record as “activate the GFP reporter system in a dose-dependent manner”; with IL-17RA/RC [1] (listed as IL-17a), “activated in a dose-dependent manner”. In the assay with IL-17RA/RC [2], the “increase of percentage of GFP+ cells / GFP expression (reporter response)” value is on record as “responds highly selectively”. In addition, the “percentage of GFP+ cells” value with IL-17RA/RC [2] (increased from 1%) was 60%.
IL-17F: IL-17 family cytokine: the “dose-dependent activation” value with IL-17RA/RC [1] is “activate the GFP reporter system in a dose-dependent manner”; in the assay with IL-17RA/RC [1] (listed as IL-17f) it was “to a lesser degree”.
Regarding IL-17A (ligand), the percentage of GFP^+ cells (24 h stimulation, 100 ng/ml) in assay [3] came to 60%.
Take “IL-10: cytokine, used to activate the IL-10 reporter”: the “dose dependent activation of reporter” value with IL-10R is recorded as “dose dependent activation”.
In assay [4], IL-17E (ligand) came in with a percentage of GFP^+ cells (24 h stimulation, 100 ng/ml) of 80%.
With TNFa, the “increase of percentage of GFP+ cells / GFP expression (reporter response)” value at IL-17RA/RC [2] and at IL-17RA/RB was “failed to increase GFP expression” throughout. The “dose dependent activation of reporter” value on TNFαR1 is listed as “dose dependent activation”.

B1: IFN-γ: dimerized soluble cytokine (interferon) that activates interferon gamma receptors (protein, listed as Homo sapiens)
chain: MKYTSYILAFQLCIVLGSLGCYCQDPYVKEAENLKKYFNAGHSDVADNGTLFLGILKNWKEESDRKIMQSQIVSFYFKLFKNFKDDQSIQKSVETIKEDMNVKFFNSNKKKRDDFEKLTNYSVTDLNVQRKAIHELIQVMAELSPAAKTGKRKRSQMLFRGRRASQ
With B1, the “dose dependent activation of reporter” value in the assay with IFNγR is given as “dose dependent activation”.

B2: IL-17E: IL-17 family cytokine; the natural ligand of IL-17RA/RB (protein, UniProt Q9H293 33-177, looked up)
Interleukin-25: YSHWPSCCPSKGQDTSEELLRWSTVPVPPLEPARPNRHPESCRASEDGPLNSRAISPWRYELDRDLNRLPQDLYHARCLCPHCVSLQTGSHMDPRGNSELLYHNQTVFYRRPCHGEKGTHKGYCLERRLYRVSLACVCVRPRVMG
Take B2: the “increase of percentage of GFP+ cells / GFP expression (reporter response)” value with IL-17RA/RB is “responds highly”. In addition, the “percentage of GFP+ cells” value with IL-17RA/RB (increased from 1%) was 80%.

B3: IL-17C: IL-17 family cytokine (protein, UniProt Q9P0M4 19-197, looked up)
Interleukin-17C: HHDPSLRGHPHSHGTPHCYSAEELPLGQAPPHLLARGAKWGQALPVALVSSLEAASHRGRHERPSATTQCPVLRPEEVLEADTHQRSISPWRYRVDTDEDRYPQKLAFAECLCRGCIDARTGRETAALNSVRLLQSLLVLRRRPCSRDGSGLPTPGAFAFHTEFIHVPVGCTCVLPRSV
On to B3, for which the “dose-dependent activation” value in the assay with IL-17RA/RC [1] is “not”.

The values above are taken from patent US20240053325A1, “NOVEL SCREENING PLATFORM TO IDENTIFY IMMUNE MODULATORY AGENTS” (PRESIDENT AND FELLOWS OF HARVARD COLLEGE, priority 2020, published 2024).
